These results are taken from patent publication US20220259593A1, “CONTROL OF MAMMALIAN GENE DOSAGE USING CRISPR” (The Regents of the University of California, priority 2019, published 2022).

Residue numbers refer to the chain shown, from its start.

The subject of this series is K562 CRISPRi cells. The series can be described thus: Constant region variant library pooled growth screen, K562. It is filed as cell-based, human. The gist of the method: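 Relative activity expresses each targeting sequence:constant region pair's phenotype over that of the unmodified constant region. Pooled growth screen ran in K562 CRISPRi cells in duplicate spinner-flask replicates, with puromycin selection and 4–8 days' growth at >2000× coverage; library paired variants with 36 targeting sequences.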

[1] abbreviates: sgRNA constant region variant, activity relative to unmodified constant region cr995, mean CRISPRi activity.
The mark [2] stands for this setting: sgRNA constant region variants, activity relative to the original, un-modified constant region cr995.

B1: cr384 (nucleic acid)
guide: GTTTAAGAGCTAAGCTGGAAACAGCATAGCAAGTTTAAATAAATCTAGTATGTTATCAACTTGAAAAAGTGGCACCGAGTCGGTGCT
modifications: listed as DNA, chemistry not fully specified
On to B1, for which the Mean relative activity under setting [1] is 0.01438.

B2: cr332 (nucleic acid)
guide: B1 guide with G33T, T34A, A43G, T44G, A50C, T51C
modifications: listed as DNA, chemistry not fully specified
Consider B2, for which the Mean relative activity under setting [1] is listed as 0.01145.

B3: cr067 (nucleic acid)
guide: B1 guide with G1C, T4G, A43G, T44G, A50C, T51C
modifications: listed as DNA, chemistry not fully specified
Turning to B3, the Mean relative activity under setting [1] turned out to be 0.01012.

B4: cr044 (nucleic acid)
guide: B1 guide with T3G, A8T, A43G, T44G, A50C, T51C
modifications: listed as DNA, chemistry not fully specified
On to B4, for which the Mean relative activity under setting [1] is recorded as 0.01046.

B5: cr413 (nucleic acid)
guide: B1 guide with G33C, A43G, T44G, A50C, T51C, C75A, G83T
modifications: listed as DNA, chemistry not fully specified
As for B5, under setting [1], the Mean relative activity worked out at 0.01427.

B6: cr649 (nucleic acid)
guide: B1 guide with G33C, A43G, T44G, C45T, G48A, A50C, T51C
modifications: listed as DNA, chemistry not fully specified
B6 registered a Mean relative activity under setting [1] of 0.01138.

B7: cr750 (nucleic acid)
guide: B1 guide with T34G, A43G, T44G, A50C, T51C, C60T, G69A
modifications: listed as DNA, chemistry not fully specified
For B7, the Mean relative activity under setting [1] was determined as 0.01125.

B8: cr704 (nucleic acid)
guide: B1 guide with A43G, T44G, A50C, T51C, T70C
modifications: listed as DNA, chemistry not fully specified
For B8, the Mean relative activity under setting [2] came out at 1.033.

B9: cr628 (nucleic acid)
guide: B1 guide with A43G, T44G, A50C, T51C, C73T, G77A, C81T, G85A
modifications: listed as DNA, chemistry not fully specified
For B9, the Mean relative activity under setting [2] was 1.033.

B10: cr524 (nucleic acid)
guide: B1 guide with A43G, T44G, A50C, T51C, A64T
modifications: listed as DNA, chemistry not fully specified
For the molecule B10, the Mean relative activity under setting [2] is listed as 1.032.

B11: cr475 (nucleic acid)
guide: B1 guide with A41T, A43G, T44G, A50C, T51C, A65T
modifications: listed as DNA, chemistry not fully specified
B11 had a Mean relative activity under setting [1] of 0.0113.

B12: cr509 (nucleic acid)
guide: B1 guide with A43C, T44G, A50C, T51G, C75A, G83T
modifications: listed as DNA, chemistry not fully specified
Under setting [1], B12 came in with a Mean relative activity of 0.01061.

B13: cr250 (nucleic acid)
guide: B1 guide with A43G, T44G, T49A, A50C, T51C, G71C, T80G
modifications: listed as DNA, chemistry not fully specified
As to B13, the Mean relative activity under setting [1] is on record as 0.01012.

B14: cr424 (nucleic acid)
guide: B1 guide with A43C, T44G, A50C, T51G, A74G, C75T, G83A, T84C
modifications: listed as DNA, chemistry not fully specified
B14 gave a Mean relative activity under setting [1] of 0.01319.

B15: cr562 (nucleic acid)
guide: B1 guide with A31G, G33C, A43G, T44G, A50C, T51C, A65G
modifications: listed as DNA, chemistry not fully specified
For B15, under setting [1], the Mean relative activity was 0.01393.

B16: cr310 (nucleic acid)
guide: B1 guide with A41T, A43G, T44G, A50C, T51C, A66T
modifications: listed as DNA, chemistry not fully specified
On to B16, for which the Mean relative activity under setting [1] turned out to be 0.01363.

B17: cr663 (nucleic acid)
guide: B1 guide with T34G, A43G, T44G, A50C, T51C, G77T, C81A
modifications: listed as DNA, chemistry not fully specified
B17: the Mean relative activity under setting [1] is on record as 0.01081.

B18: cr268 (nucleic acid)
guide: B1 guide with T34G, A43G, T44G, A50C, T51C, C76A, G82T
modifications: listed as DNA, chemistry not fully specified
Regarding B18, the Mean relative activity under setting [1] was found to be 0.01166.

B19: cr079 (nucleic acid)
guide: B1 guide with T2G, T4C, A43G, T44G, A50C, T51C
modifications: listed as DNA, chemistry not fully specified
In turn, B19 gave a Mean relative activity under setting [1] of 0.01223.

B20: cr773 (nucleic acid)
guide: B1 guide with T34G, A43G, T44G, A47T, A50C, T51C, A64G
modifications: listed as DNA, chemistry not fully specified
In turn, B20 displayed a Mean relative activity under setting [1] of 0.01327.

B21: cr337 (nucleic acid)
guide: B1 guide with A43C, T44G, A50C, T51G, A65G
modifications: listed as DNA, chemistry not fully specified
Molecule B21 returned a Mean relative activity under setting [1] of 0.01313.

B22: cr111 (nucleic acid)
guide: B1 guide with G33C, A43G, T44G, A50C, T51C, C76A, G82T
modifications: listed as DNA, chemistry not fully specified
B22 returned a Mean relative activity under setting [1] of 0.013.

B23: cr248 (nucleic acid)
guide: B1 guide with A43C, T44G, A50C, T51G
modifications: listed as DNA, chemistry not fully specified
Consider B23, for which the Mean relative activity under setting [1] was found to be 0.01369.

B24: cr028 (nucleic acid)
guide: B1 guide with T3C, T4C, A43G, T44G, A50C, T51C
modifications: listed as DNA, chemistry not fully specified
In the case of B24, the Mean relative activity under setting [1] was found to be 0.01375.

B25: cr949 (nucleic acid)
guide: B1 guide with T34G, A43G, T44G, A50C, T51C, A65T
modifications: listed as DNA, chemistry not fully specified
Under setting [1], B25 gave a Mean relative activity of 0.01022.

B26: cr041 (nucleic acid)
guide: B1 guide with T2C, A5C, A43G, T44G, A50C, T51C
modifications: listed as DNA, chemistry not fully specified
The molecule B26 had a Mean relative activity under setting [1] of 0.01415.

B27: cr665 (nucleic acid)
guide: B1 guide with G33C, A43G, T44G, A50C, T51C, G72C, C86G
modifications: listed as DNA, chemistry not fully specified
B27 gave a Mean relative activity under setting [1] of 0.01294.

B28: cr613 (nucleic acid)
guide: B1 guide with A43C, T44G, C45G, G48C, A50C, T51G
modifications: listed as DNA, chemistry not fully specified
Consider B28, for which the Mean relative activity under setting [1] is 0.01125.

B29: cr103 (nucleic acid)
guide: B1 guide with A32T, A43G, T44G, A50C, T51C, G52T, T80G
modifications: listed as DNA, chemistry not fully specified
Under setting [1], B29 had a Mean relative activity of 0.01259.

B30: cr214 (nucleic acid)
guide: B1 guide with A43G, T44G, A50C, T51C, A65G, C75A, G83T
modifications: listed as DNA, chemistry not fully specified
As to B30, the Mean relative activity under setting [2] was determined as 1.033.

B31: cr024 (nucleic acid)
guide: B1 guide with G1T, T3G, A43G, T44G, A50C, T51C
modifications: listed as DNA, chemistry not fully specified
Regarding B31, under setting [1], the Mean relative activity is given as 0.01205.

B32: cr280 (nucleic acid)
guide: B1 guide with G33C, A43G, T44G, A50C, T51C, G72T, C86A
modifications: listed as DNA, chemistry not fully specified
In turn, B32 had a Mean relative activity under setting [1] of 0.01273.

B33: cr191 (nucleic acid)
guide: B1 guide with G33C, A43G, T44G, A50C, T51C, C75G, G83C
modifications: listed as DNA, chemistry not fully specified
Molecule B33 showed a Mean relative activity under setting [1] of 0.01358.

B34: cr157 (nucleic acid)
guide: B1 guide with G33C, A43G, T44G, A50C, T51C, C75T, G83A
modifications: listed as DNA, chemistry not fully specified
On to B34, for which the Mean relative activity under setting [1] amounted to 0.01383.

B35: cr528 (nucleic acid)
guide: B1 guide with A31C, A32G, G33C, A43G, T44G, A50C, T51C
modifications: listed as DNA, chemistry not fully specified
Turning to B35, under setting [1], the Mean relative activity is 0.01243.

B36: cr445 (nucleic acid)
guide: B1 guide with A43G, T44G, A50C, T51C, C75T, G77C, C81T, G83C
modifications: listed as DNA, chemistry not fully specified
As for B36, the Mean relative activity under setting [1] worked out at 0.01078.

B37: cr204 (nucleic acid)
guide: B1 guide with T34C, A43G, T51C
modifications: listed as DNA, chemistry not fully specified
For B37, the Mean relative activity under setting [1] came to 0.01236.

B38: cr860 (nucleic acid)
guide: B1 guide with T34C, T44G, A50C
modifications: listed as DNA, chemistry not fully specified
B38 yielded a Mean relative activity under setting [1] of 0.01022.

B39: cr316 (nucleic acid)
guide: B1 guide with A43T, T44G, A50C, T51A, G77A, C81T
modifications: listed as DNA, chemistry not fully specified
B39 displayed a Mean relative activity under setting [1] of 0.01422.
